{
  "source": "patent US20060094649A1",
  "about": "(published 2006)",
  "key": {"HLA-B*1801": {"target": "HLA-B*1801 (human)", "assay": "competition with labeled probe peptide, purified HLA class I"}, "HLA-B*4403 [1]": {"target": "HLA-B*4403 (human)", "assay": "competitive inhibition of labeled probe peptide, purified HLA"}, "HLA-A*3101": {"target": "HLA-A*3101 (human)", "assay": "competition vs 125I probe, purified HLA"}, "HLA-B*4403 [2]": {"target": "HLA-B*4403 (human)", "assay": "competition with labeled probe peptide, purified HLA class I"}, "HLA-B*4501": {"target": "HLA-B*4501 (human)", "assay": "competition vs labelled reference peptide on HLA class I"}, "HLA-B*4403 [3]": {"target": "HLA-B*4403 (human)", "assay": "competition vs labelled reference peptide on HLA class I"}, "HLA-A*3301": {"target": "HLA-A*3301 (human)", "assay": "competition vs 125I probe, purified HLA"}},
  "note": "Non-standard residues stand in square brackets, D forms with d. No end group written: not given here. Abu = CC[C@H](N)C(=O)O",
  "data": [
    {"binder": "LESEFQAAL", "note": "[LESEFQAAL (MAGE3, position printed 301)]", "values": [
      {"measurement": "IC50", "setting": "HLA-B*1801", "value": 5.4, "unit": "nM"}
    ]},
    {"binder": "SEYLQLVFGIEVV", "note": "[MAGE2 155 SEYLQLVFGIEVV]", "values": [
      {"measurement": "IC50", "setting": "HLA-B*4403 [1]", "value": 7.6, "unit": "nM"}
    ]},
    {"binder": "SV[Abu]MGGMNK", "note": "[p53.240.V2B3K9]", "values": [
      {"measurement": "IC50", "setting": "HLA-A*3101", "value": 9000, "unit": "nM"}
    ]},
    {"binder": "PEEGLEARGEA", "note": "[PEEGLEARGEA (MAGE2, position 12)]", "values": [
      {"measurement": "IC50", "setting": "HLA-B*4403 [2]", "value": 950, "unit": "nM"}
    ]},
    {"binder": "SS[Abu]MGGMNRK", "note": "[p53.240.B3K10]", "values": [
      {"measurement": "IC50", "setting": "HLA-A*3101", "value": 720, "unit": "nM"}
    ]},
    {"binder": "EEGACQPCPI", "note": "[EEGACQPCPI (Her2/neu position 619, 10-mer)]", "values": [
      {"measurement": "IC50", "setting": "HLA-B*4501", "value": 401, "unit": "nM"}
    ]},
    {"binder": "GEGLACHQLCA", "note": "[GEGLACHQLCA (Her2/neu position 506, 11-mer)]", "values": [
      {"measurement": "IC50", "setting": "HLA-B*4403 [3]", "value": 2.7, "unit": "nM"}
    ]},
    {"binder": "[Abu]VYSPALNR", "note": "[p53.124.B1V2R9]", "values": [
      {"measurement": "IC50", "setting": "HLA-A*3301", "value": 85, "unit": "nM"}
    ]}
  ]
}
